In a protein production outcome set (Wang et al. 2014):

Test: label from the status in PepcDB records

Sequence	protein production
MASADKLINTDVPEKDVFAFHFLQSLSNLRKQNPFDTPDQKNYRVRKIKKAAYVSMARAAGGSSRLWSRALLRRADKDDNKIVRFSRRKWKISSKRRRSNQRAPVVEEAAERLRNLVPGGGGMETSKLMEETAHYIKCLSMQVKVMQCLVDGLSPK	failed
MASDPITTQEFSPRQNAVLDQALRLLVEGGEKALTTSGLARAANCSKESLYKWFGDRDGLLAAMITFQQSKVRTFEKAGDRVSAPQLADHLEVFAHDLLDVLAGDVSLALNRLAIGQASRDGSKLGDLLLERGRRQIDRRARGLIEAGRRSGYLRFDDAEEAYRSFYGLIVSDLHVRMLLGEAPDKDFSARAKKAVVAFLTLYGTEKVHSELGGKVA	not failed
MASDTPGFYMDKLNKYRQMHGVAITYKELSTSGPPHDRRFTFQVLIDEKEFPEAKGRSKQEARNAAAKLAVDILDNENKVDCHT	not failed
MASEFDLIQRYFRRAHPSAVLGVGDDAALIQPSPGMELAVSADMLVANTHFYPNIDPWLIGWKSLAVNISDMAAMGAQPRWATLTIALPEADEDWISKFAAGFFACAAQFDIALIGGDTTRGPLTISVQIMGETPPGASLLRSTARADDDIWVSGPLGDAALALAAIQGRYPLSDTELAACGKALHQPQPRVVLGQALRGLAHSALDISDGLLADLGHILEHSQVGAEVWLKAIPKSEVVSAHSQEVAIQKMILSGGDDYELCFTASTQHRQQIADIGRQLSLDMAVIGRITDTQQLVIHGLDDAPLTLKEHGFDHFA	not failed
MASESSIDEKKKKAQVTQSNINKNTPQQLTDKDLFGNETTLAVSEEDIQAALDGDEFRVPLNSPVILVQSGNRAPETIMQEEMRKYYTVSTFSGIPDRQKPLTCNKNKDKNENEDVASAENMNWMQALRFVAAKGHQKAIIVYQDMLQTGKYDSALKSTVWSDYKNDKLTDAISLRYLVRFTLVDVATGEWATWSPVNYEYKVLPPLPDKNEASTTDMTEQQIMQLKQKTYKAMVKDLVNRYQLEHHHHHH	failed
MASGSTQVKYLGIYQKMKQQILDGEYKINEKIPSSPILAEEFGVSVLTIKKALDLLVRDGYIIRRRGSGTVVQDWRQQEKARMIQTLTGTKAVYGSEVESKIIEFTIVGADEIIAEKLGISVGDFVYKIIRLRIIHSIPTIMEHTWMPIAVIPGVEASVLEESIYSYIQNKLGLKVGTSVVRVKGIRPDDKEKQFMNLTNQDFLMRVEQVAYLTDGRTFEYSYADHLPETFEFETVITAKSYKEA	failed
MASHELDYRILGESMQTVEIELDPGETVIAEAGAMNYMTGDIRFTARMGDGSDGSLLGKLWSAGKRKLGGESVFMTHFTNEGQGKQHVAFAAPYPGSVVAVDLDDVGGRLFCQKDSFLCAAYGTRVGIAFTKRLGAGFFGGEGFILQKLEGDGLVFVHAGGTLIRRQLNGETLRVDTGCLVAFTDGIDYDVQLAGGLKSMLFGGEGLLLTTLKGSGTVWLQSLPFSRLAGRIYDATFRAREEVRTNNG	not failed
MASHISLKQLKVFTTITQHKTLTAASDSLFLSKAAVSMALSELEKQIGHHLFDRVNNRLILNQEGQKLLPLADELLNRAKDIESIFDGDQALSGQLRIGASDTIGNQVAPYLLSEFRQQTNHRSQSLFISNSAQICDMLTDYELDIALIEGKTLHPELQSTQFSEDEMCVICAPDYPAAHEGPVNLTELENSEWILREAGSGSREFFMRVVAPRLEHWHEAFQLNTTEALINSVSAGLGLGCLSRLSAEPAIRDGRVKLLDMPLDMKRRFWLLVHKEKYQSPLLKTFIEFCQDWERPTNLPLGNKSAK	failed
MASHIVGYPRMGPKRELKFALESFWDGKSSADDLQKVSADLRSDIWKQMSAAGIKYIPSNTFSHYDQVLDTTAMLGAVPSRYGFTSGEIGLDVYFSMARGNASVPAMEMTKWFDTNYHYIVPELGPEVKFSYASHKAVNEYKEAKALGVETVPVLVGPVSYLLLSKLAKGVDKSFDLLSLLPKILPVYKEVIAELKAAGASWIQLDEPLFVMDLEGHKLQAFSGAYAELESTLSGLNVLVETYFADIPAEAYKTLTSLKGVTAFGFDLVRGTKTIDLIKSGFPQGKYLFAGVVDGRNIWANDLAASLITLQSLEGVVGKDKLVVSTSCSLLHTAVDLINETKLDAEIKSWLAFAAQKVVEVDALAKALAGQTNESFFTANADALSSRRSSPRVTNESVQKAAAALKGSDHRRTTEVSARLDAQQKKLNLPILPTTTIGSFPQTVELRRVRREYKAKKISEEDYVKAIKEEIKKVVDIQEDLDIDVLVHGEPERNDMVEYFGEQLSGFAFTANGWVQSYGSRCVKPPVIYGDVSRPKPMTVFWSSTAQSMTKRPMKGMLTGPVTILNWSFVRNDQPRHETCYQIALAIKDEVEDLEKGGIGVIQIDEAALREGLPLRKAEHSFYLDWAVHSFRITNCGVQDSTQIHTHMCYSNFNDIIHSIIDMDADVITIENSRSDEKLLSVFREGVKYGAGIGPGVYDIHSPRIPSTDEIADRINKMLAVLEQNILWVNPDCGLKTRKYTEVKPALKAMVDAAKLIRSQLGSAK	failed
MASHLFTRSRISLLKTLKPNPFTSASPIRAISGTPFLSQDPLLATESTDHDPSNHQSTSTPLPPNPATGSPLYQENWRSPIPNTPSFNQSLVPLGFLNQAPAPRIRALSETLDMNSLLNMFADWTASQRWSDMKQLFEVWVRSLDKNGKPNKPDVNLYNHYLRANLMMGASAGDMLDLVAPMEEFSVEPNTASYNLVLKAMYQARETEAAMKLLERMLLLGKDSLPDDESYDLVIGMHFGVGKNDEAMKVMDTALKSGYMLSTSVFTECVRSCVAKGRTDTLVSIIERCKAVDRNKSLCPSWILCNYIAEVAIQEDNSKLAFYAFEFMFKWITRGEMARPSVIFSVDEGLVVAGLASAARTCSSSLVEGSWTILKQSLRGRKAANPASYIAKINAYASLGNLQKAFTSLHELESAYADSEKEVVEEMLSPFTSLYPLVVACSKKGFETLDEVYFQLESLSQGDTPYKSVAALNCIILGCANTWDLDRAYQTFEAISASFGLTPNIDSYNALLYAFGKVKKTFEATNVFEHLVSIGVKPDSRTYSLLVDAHLINRDPKSALTVVDDMIKAGFEPSRETLKKLRRRCVREMDDENDDQVEALAKKFQIRMGSENRRNMLFNIDYSRGRALNN	failed
MASISNLIILLISFLIGWIILSIPVWLASKAVSRRSSFGNAMIVSLVSIVVYVVLSTFLHFIGAIIGIIIILLIIREIYNVGWGGAIVIGVLSLVIFVIIALILGALHLASLLI	failed
MASLISFWLFFALSLLQPQQRQFLASKPWQDWLLDGVSLGIQGAIIPLLQLLLVINFYSLIIPHWQHSFNLFAGGQFLLGFVAIDYVYYWSHRALHSKLLFPIHQVHHTVSQMDMVSCARNTFWSSLFLPYVWLNSLIIYLLHDARGYILAISCTYLLDLWRHSSLIINKKCWLHDCLNSWLILPQDHGLHHHQIGKGNFGANLKLWDKIHGTYLKNTLPNQLSISSGMGIKLELTLWQKLFWPLT	failed
MASLLPSTGRGENIAGKLLLLIVALLMCIGVVVVYSSGAGWAEQKFSDPQYFLWRQLTFAIAGMAVIFVVGAIDYHIFRKISKLFLFVSIGLLAILLLLKLAHVIHGAARWLGFGPLKFQASDLAKYAIIFHFSRLLSEKRAYIKDLHDGYYPMLVLLMIVVALVALEPNFSTASIIAIIGFTLMFIGGIRIKYLLATASLLIPIAAVFAIAAPYRVARLVSFGGGEKELSYQVRQALLGLGNGGLFGLGLGASKQRELYLPLSYNDFVFVIIGEEYGFIGALVILLLFSGLFACGIIIAKHAPDLFGRYVAIGVTFAIVFFAFINIAVACHLMPTTGVALPFISYGGTALLFNSLGIGLLVSISRYRKKVETIERAQALLESKGGSL	failed
MASLWFGLIASSALVIGAFVGVRFELPKRLLAILLSFAAGSLITALAFELFEDAYEQGGIVRAALGLLAGAIVFTALSALLDRWAQPGGKSTTKAADEIQGSPKLDTDAAASDKAATSASTRGAAGMALLAAVTLDGVPENLALGISLGEGSGGLALLAAIFVSNLPEALVGASSMKSQGRKAGPIMLLWSVCAVLLVAAVVLGAGPLSSAEPATISLPLAFAAGAVIASLADTLMPEAYEHGGPAVALSTAAGFVLSFTLSLA	failed
MASMTGGQQMGRGSEEPNPNDGYDYMQHGFDWPGLQEGGTTKYPACSGSNQSPIDINTNQLMEPSSRSGTSAVSLNGLNVDGAQADGITLTNAKVDLEQGMKVTFDQPAANLPTIEIGGTTKSFVPIQFHFHHFLSEHTINGIHYPLELHIVMQEQDPADVATAQLAVIGIMYKYSENGDAFLNSLQTQIEGKIGDGTASYGDTGVSIDNINVKTQLLPSSLKYAGYDGSLTTPGCDERVKWHVFTTPREVTREQMKLFVDVTMGAHAGADVVNNRMIQDLGDREVYKYNY	not failed
MASQQEKKQLDERAKKGETVVPGGTGGKSFEAQQHLAEGRSRGGQTRKEQLGTEGYQQMGRKGGLSTGDKPGGEHAEEEGVEIDESKFRTKT	failed
MASRDAQEPSLHAADPSIVRPCEQHGGVLAGSVSSHPAAAECASHTPTLETGAPCAAGSAPSAPMTDQGARSPRAADSMPASSLERDERARRIACRLPSSAIRLPAFGEAVSRPNAGSSVDATATKASLPSAGDDGLGNSREEQGTTCSEPDLHGVPENDQVEVCVGGRGILRPRSYQRQAPQRCGLPGMAPETAARPDHTARNELEEALARQRARLAEPDASGDIHGRHAG	failed
MASRFQEASLVTSPSYPNAVAWSSENLIAVAAGHLVIIINPALPTGPRGLITISDAELYQIGRVRSQDLLTGGLLPSSLKRERSPCVRSLSWSEIGMSPNHGCLLAVCTAEGRVKLYRPPYSDFCAEWIEIVDISKMLYENLSSMNFGESKNPSTSLSKDQVVEHDHEEDERISSLKARKRRKTSANNINLHEKNYTDRASCSKQDSKAEHNVLEIEVYKQASNGQDRRSLPKALKKCSQEISPQTYVSREALLSSHSVAWSSLLRFSSESSCGNMLRFSLLAIGSKSGSVSIWKVHAPECYHIERSNVSPMVELTAIVQTHSSWVSTMSWGIFGCDSSNPQVVLVTGSCDGSVKIWMSNKEDLQNSVEVYKSSFFLLKEVVAVNPVQVSTLSFVVSNHYNAMHLAIGKGSGSFEVWKCEISTRKFEQIVSTNAHNQVVTGLAWSYDGRCLYSCSQDNYVRSWILCENAISEVPIPANTPGLSSTTDLPDDFLSCLGVALSPGNLAVALVRNFNVELLNPMYQARSQKAAVEFLWNGAQQSGESEDSTETVTEAILGFSKNEFANWESNILWSLKEFNYLNKPLVLWDMVAAMLAFKQSMPEFVELVLTKWLSVSYLGFHDDISMEDLVPKITKRFSDVPSRLLHILNVISRRVMLSELKTEEINRKLQGQRTNDEGEIDLWLKLLQESERELRERLVGLSFSAYLLAESSQGTISPPSWNWRPAGLALLQQWVEINRDIVHSQLETLSLEVKSSRTRSSNSTETALEEEKCPYCAAPVNFHSAEEAFCESSHQKKKKSKDKERCDESHKLERCCVSMQVCPPTPLWFCKCCNRMTLELAPETLFALPSFPSDLKSLPKSSFSKVASKPFCLFCGVLLQRKQPEFLLSASPV	failed
MASRPSVRHPSHNHPLRGHKAQVEDEIICSGCDLDLLGAYFKCTKSECDYFLHKSCFDLPREIRHKSHPDHPLILLYSPQNNNSTYTCDACGEYGSGFTYNCSICQYDVHVGCVSVPETMKHDEHVHPLALIYKAPCPKDHIFTCDVCDETMPHNLWLYYCQKCDYGAHLHSCVAEEEEKSKKGGRGRGGEGGSGGNGVNRGRSSANSELAAMLKAQREMEQMQIALHLEMQRAKIDKKSRKHMLKMI	failed
MASSSSSPTPSAAAAVSPLTEEELTLTVKWNGKEYTVRICADDSVAELKRRICLLTTVLPKRQKLLYPKIGNKLSDDSLLLSSISFKPSLKMTMIGTVEDDIIVDQAESPEIVDDFELGKEEAVDVKDKEVNKQKLRRRIDQYKINLRTPCRQGKKLLVLDIDYTLFDHRSTAENPLQLMRPYLHEFLTAAYAEYDIMIWSATSMKWVELKMTELGVLNNPNYKVTALLDHLAMITVQSDTRGIFDCKPLGLIWALLPEFYNPGNTIMFDDLRRNFVMNPQNGLTIKPFRKAHANRDTDQELVKLTQYLLTIAELSDLSSLHHSRWESFSQDNVKRRRQE	failed
